Assay [1] has as its target HLA-A*1101 (human). Description: inhibition of 125I-labelled probe peptide binding to purified HLA-A*1101, gel filtration. (In general: Size exclusion chromatography separates by hydrodynamic size, large species first.)
Assay [2] addresses HLA-B*5301 (human). Description: competition vs 125I-labeled standard peptide, purified HLA.
Assay [3] addresses HLA-B*5101 (human). The assay is described as above.
The target of assay [4] is HLA-B*0702 (human). The assay is described as above.
Assay [5] has as its target HLA-B*5401 (human). The description is as above.
For assay [6], the target named is T1, HLA-DR3 (DRB1*0301) (human).
T1 construct: purified HLA class II molecule
Briefly: competition binding assay, purified HLA, 125I-labelled probe peptide, gel filtration.

The target of assay [7] is HLA-B*5101 (human). Description: competition with 125I probe peptide, purified HLA.
Assay [8] has as its target HLA-B*0702 (human). Description: competition with 125I probe peptide, purified HLA.
The target in assay [9] is HLA-A*1101 (human). Description: inhibition of 125I-labelled standard peptide binding to purified HLA, gel filtration.
In assay [10] the target is HLA-A*0301 (human). Described as above.

B1: HER2/neu peptide, position 776, 9 amino acids (peptide)
peptide: GVGSPYVSR
Turning to B1, the “relative binding ratio (IC50 of standard peptide / IC50 of test peptide)” value in assay [1] was found to be 0.0066 relative binding ratio.

B2: HER2/neu peptide, position 704, 10 amino acids (peptide)
peptide: GAMPNQAQMR
Turning to B2, the “relative binding ratio (IC50 of standard peptide / IC50 of test peptide)” value in assay [1] worked out at 0.0041 relative binding ratio.

B3: Her2/neu.760.F1I9 (peptide)
peptide: FPKANKEII
notes: 9-mer analog of the HER2/neu peptide starting at position 760
As a reminder, the IC50 is the concentration that inhibits the measured activity by half. A higher IC50 goes with lower potency. With B3, the IC50 was determined as 7150 nM in [2], 55 nM in [3], 8.5 nM in assay [4] and 39 nM in assay [5].

B4: HER2/neu peptide, position 265, 10 amino acids (peptide)
peptide: ELHCPALVTY
Regarding B4, the “relative binding ratio (IC50 of standard peptide / IC50 of test peptide)” value in assay [1] was determined as 0.0002 relative binding ratio.

B5: HER2/neu peptide, position 727, 9 amino acids (peptide)
peptide: GSGAFGTVY
B5: the “relative binding ratio (IC50 of standard peptide / IC50 of test peptide)” value in assay [1] amounted to 0.0001 relative binding ratio.

B6: HER2/neu peptide, position 874, 10 amino acids (peptide)
peptide: ETEYHADGGK
B6: in assay [1], the “relative binding ratio (IC50 of standard peptide / IC50 of test peptide)” value turned out to be 0.0001 relative binding ratio.

B7: Her2/neu.649, 10-mer (peptide)
peptide: SPLTSIISAV
notes: 10-mer native HER2/neu peptide starting at position 649
On to B7, for which the figures for the IC50 in assay [4] and in assay [5] were 61 nM and 667 nM, respectively.

B8: HER2/neu peptide, position 292, 10 amino acids (peptide)
peptide: GASCVTACPY
With B8, the “relative binding ratio (IC50 of standard peptide / IC50 of test peptide)” value in [1] is 0.0001 relative binding ratio.

B9: HER2/neu peptide NKEILDEAYVMAGVG (position 764) (peptide)
peptide: NKEILDEAYVMAGVG
notes: also called Her2/neu.764
Take B9: the relative binding ratio in [6] is 0.0047 ratio to standard peptide.

B10: HER2/neu peptide, position 327, 10 amino acids (peptide)
peptide: GTQRCEKCSK
For the molecule B10, in assay [1], the “relative binding ratio (IC50 of standard peptide / IC50 of test peptide)” value worked out at 0.61 relative binding ratio.

B11: Her2/neu.415.I8 (peptide)
peptide: WPDSLPDI
notes: analog peptide
Turning to B11, the results for the IC50 in assay [7] and in assay [8] were 5000 nM and 71 nM, respectively.

B12: HER2/neu peptide, position 280, 9 amino acids (peptide)
peptide: ESMPNPEGR
With B12, the “relative binding ratio (IC50 of standard peptide / IC50 of test peptide)” value in [1] was -0.0002 relative binding ratio.

B13: HER2/neu peptide SLAFLPESFDGDPAS (position 373) (peptide)
peptide: SLAFLPESFDGDPAS
notes: also called Her2/neu.373
B13: the relative binding ratio in assay [6] was -0.0027 ratio to standard peptide.

B14: HER2/neu peptide YRSLLEDDDMGDLVD (position 1005) (peptide)
peptide: YRSLLEDDDMGDLVD
notes: also called Her2/neu.1005
Regarding B14, the relative binding ratio in assay [6] was 0.063 ratio to standard peptide.

B15: HER2/neu peptide VHTVPWDQLFRNPHQ (position 477) (peptide)
peptide: VHTVPWDQLFRNPHQ
notes: also called Her2/neu.477
On to B15, for which the relative binding ratio in [6] is 0.022 ratio to standard peptide.

B16: HER2/neu peptide, position 976, 10 amino acids (peptide)
peptide: FSRMARDPQR
Regarding B16, the “relative binding ratio (IC50 of standard peptide / IC50 of test peptide)” value in assay [1] amounted to 0.001 relative binding ratio.

B17: HER2/neu peptide, position 668, 9 amino acids (peptide)
peptide: GVVFGILIK
notes: T0001 prints T at residue 673
In the case of B17, in [1], the “relative binding ratio (IC50 of standard peptide / IC50 of test peptide)” value was found to be 0.089 relative binding ratio.

B18: Her2/neu.642.F1I10 (peptide)
peptide: FPAEQRASPI
notes: 10-mer analog of the HER2/neu peptide starting at position 642
B18: the IC50 was found to be 4900 nM in assay [2], 98 nM in assay [3], 3.1 nM in assay [4] and 56 nM in assay [5].

B19: Her2/neu.706.F1I10 (peptide)
peptide: FPNQAQMRII
notes: 10-mer analog of the HER2/neu peptide starting at position 706
Take B19: the IC50 was determined as 490 nM in [2], 76 nM in [3], 290 nM in assay [4] and 59 nM in assay [5].

B20: HER2/neu peptide, position 447, 10 amino acids (peptide)
peptide: GLGISWLGLR
For the molecule B20, the “relative binding ratio (IC50 of standard peptide / IC50 of test peptide)” value in [1] is 0.0001 relative binding ratio.

B21: HER2/neu peptide, position 1188, 9 amino acids (peptide)
peptide: GGAVENPEY
As to B21, the “relative binding ratio (IC50 of standard peptide / IC50 of test peptide)” value in assay [1] was 0.0001 relative binding ratio.

B22: HER2/neu peptide, position 360, 9 amino acids (peptide)
peptide: NIQEFAGCK
notes: Synthetic A3 supermotif peptide
Turning to B22, the results for the relative binding ratio in [9] and in assay [10] were 0.0036 ratio (IC50 of standard peptide / IC50 of test peptide) and 0.0002 ratio (IC50 of standard peptide / IC50 of test peptide), respectively.

B23: HER2/neu peptide YNYLSTDVGSCTLVC (position 301) (peptide)
peptide: YNYLSTDVGSCTLVC
notes: also called Her2/neu.301
Consider B23, for which the relative binding ratio in assay [6] is 0.0059 ratio to standard peptide.

B24: HER2/neu peptide, position 1162, 10 amino acids (peptide)
peptide: PAGATLERPK
notes: as for B22
For B24, the relative binding ratio in assay [9] and in assay [10] was -0.0002 ratio (IC50 of standard peptide / IC50 of test peptide) throughout.

B25: Her2/neu.605 (peptide)
peptide: KPDLSYMPI
notes: native HER2/neu peptide from position 605
B25: the IC50 stood at 2500 nM in assay [7] and 76 nM in [8].

B26: HER2/neu peptide TVPLPSETDGYVAPL (position 1117) (peptide)
peptide: TVPLPSETDGYVAPL
notes: also called Her2/neu.1117
For the molecule B26, the relative binding ratio in assay [6] is -0.0025 ratio to standard peptide.

B27: HER2/neu peptide, position 832, 9 amino acids (peptide)
peptide: GMSYLEDVR
Take B27: the “relative binding ratio (IC50 of standard peptide / IC50 of test peptide)” value in assay [1] was found to be 0.0002 relative binding ratio.

B28: HER2/neu peptide, position 321, 10 amino acids (peptide)
peptide: EVTAEDGTQR
On to B28, for which, in assay [1], the “relative binding ratio (IC50 of standard peptide / IC50 of test peptide)” value came to 0.0001 relative binding ratio.

B29: HER2/neu peptide, position 672, 10 amino acids (peptide)
peptide: GILIKRRQQK
On to B29, for which the “relative binding ratio (IC50 of standard peptide / IC50 of test peptide)” value in assay [1] came out at 0.0014 relative binding ratio.

B30: HER2/neu peptide, position 727, 10 amino acids (peptide)
peptide: GSGAFGTVYK
As for B30, in assay [1], the “relative binding ratio (IC50 of standard peptide / IC50 of test peptide)” value came out at 0.13 relative binding ratio.

B31: HER2/neu peptide, position 549, 10 amino acids (peptide)
peptide: GLPREYVNAR
B31: the “relative binding ratio (IC50 of standard peptide / IC50 of test peptide)” value in assay [1] turned out to be 0.0003 relative binding ratio.

B32: HER2/neu peptide NQEVTAEDGTQRCEK (position 319) (peptide)
peptide: NQEVTAEDGTQRCEK
notes: also called Her2/neu.319
Consider B32, for which the relative binding ratio in assay [6] was -0.0027 ratio to standard peptide.

B33: HER2/neu peptide, position 508, 10 amino acids (peptide)
peptide: GLACHQLCAR
For the molecule B33, the “relative binding ratio (IC50 of standard peptide / IC50 of test peptide)” value in assay [1] was 0.0001 relative binding ratio.

B34: Her2/neu.65 (10-mer) (peptide)
peptide: LPTNASLSFL
notes: native HER2/neu peptide from position 65
Consider B34, for which the results for the IC50 in assay [7] and in [8] were 2500 nM and 290 nM, respectively.

B35: HER2/neu peptide, position 1102, 10 amino acids (peptide)
peptide: PTHDPSPLQR
For the molecule B35, the relative binding ratio was 0.0001 ratio (IC50 of standard peptide / IC50 of test peptide) in assay [9] and 0.0003 ratio (IC50 of standard peptide / IC50 of test peptide) in [10].

B36: Her2/neu.649.I9 (peptide)
peptide: SPLTSIISI
notes: 9-mer analog of the HER2/neu peptide starting at position 649
For the molecule B36, the IC50 in assay [2] amounted to 3440 nM; in assay [3], 275 nM; in assay [4], 86 nM; in assay [5], 217 nM.

B37: HER2/neu peptide VTCFGPEADQCVACA (position 574) (peptide)
peptide: VTCFGPEADQCVACA
notes: also called Her2/neu.574
Turning to B37, the relative binding ratio in assay [6] is -0.0027 ratio to standard peptide.

B38: HER2/neu peptide, position 878, 10 amino acids (peptide)
peptide: HADGGKVPIK
Consider B38, for which the “relative binding ratio (IC50 of standard peptide / IC50 of test peptide)” value in [1] stood at 0.0008 relative binding ratio.

B39: HER2/neu peptide, position 1213, 9 amino acids (peptide)
peptide: FSPAFDNLY
As to B39, the “relative binding ratio (IC50 of standard peptide / IC50 of test peptide)” value in assay [1] came to 0.0002 relative binding ratio.

B40: HER2/neu peptide, position 914, 10 amino acids (peptide)
peptide: ELMTFGAKPY
Regarding B40, the “relative binding ratio (IC50 of standard peptide / IC50 of test peptide)” value in [1] amounted to 0.0002 relative binding ratio.

B41: HER2/neu peptide, position 360, 10 amino acids (peptide)
peptide: NIQEFAGCKK
notes: as for B22
On to B41, for which the relative binding ratio in assay [9] was 0.0056 ratio (IC50 of standard peptide / IC50 of test peptide); in assay [10] it was 0.0003 ratio (IC50 of standard peptide / IC50 of test peptide).

B42: HER2/neu peptide RSLLEDDDMGDLVDA (position 1006) (peptide)
peptide: RSLLEDDDMGDLVDA
notes: also called Her2/neu.1006
On to B42, for which the relative binding ratio in [6] was 0.008 ratio to standard peptide.

B43: HER2/neu peptide, position 401, 9 amino acids (peptide)
peptide: ETLEEITGY
Consider B43, for which the “relative binding ratio (IC50 of standard peptide / IC50 of test peptide)” value in [1] was determined as 0.0002 relative binding ratio.

B44: HER2/neu peptide, position 1038, 9 amino acids (peptide)
peptide: GAGGMVHHR
For B44, in assay [1], the “relative binding ratio (IC50 of standard peptide / IC50 of test peptide)” value was found to be 0.0043 relative binding ratio.

B45: HER2/neu peptide, position 346, 9 amino acids (peptide)
peptide: GMEHLREVR
In the case of B45, the “relative binding ratio (IC50 of standard peptide / IC50 of test peptide)” value in assay [1] was -0.0002 relative binding ratio.

B46: HER2/neu peptide, position 95, 9 amino acids (peptide)
peptide: PLQRLRIVR
notes: as for B22
Consider B46, for which the relative binding ratio in assay [9] was 0.0001 ratio (IC50 of standard peptide / IC50 of test peptide); in assay [10], 0.0002 ratio (IC50 of standard peptide / IC50 of test peptide).

B47: HER2/neu peptide TAPLQPEQLQVFETL (position 389) (peptide)
peptide: TAPLQPEQLQVFETL
notes: also called Her2/neu.389
As for B47, in [6], the relative binding ratio is 0.0023 ratio to standard peptide.

B48: HER2/neu peptide PSGVKPDLSYMPIWK (position 601) (peptide)
peptide: PSGVKPDLSYMPIWK
notes: also called Her2/neu.601
B48: in assay [6], the relative binding ratio is -0.0027 ratio to standard peptide.

B49: HER2/neu peptide SLSFLQDIQEVQGYV (position 70) (peptide)
peptide: SLSFLQDIQEVQGYV
notes: also called Her2/neu.70
Regarding B49, the relative binding ratio in [6] is 0.052 ratio to standard peptide.

B50: Her2/neu.698.F1I9 (peptide)
peptide: FPLTPSGAI
notes: 9-mer analog of the HER2/neu peptide starting at position 698
Take B50: the IC50 was 9.2 nM in assay [3], 0.9 nM in assay [4] and 1.9 nM in assay [5].

B51: HER2/neu peptide SDVFDGDLGMGAAKG (position 1083) (peptide)
peptide: SDVFDGDLGMGAAKG
notes: also called Her2/neu.1083
For the molecule B51, in assay [6], the relative binding ratio was -0.0025 ratio to standard peptide.

B52: Her2/neu.760.F1, 8-mer (peptide)
peptide: FPKANKEI
notes: 8-mer analog of the HER2/neu peptide starting at position 760; same label as the 9-mer in r54
Take B52: the IC50 in assay [3] worked out at 2500 nM; in [4], 0.16 nM; in assay [5], 3120 nM.

The values are drawn from patent US20040018971A1 (published 2004).
